# Source: publication PMC6044281, “Cooperative Domain Formation by Homologous Motifs in HOIL-1L and SHARPIN Plays A Crucial Role in LUBAC Stabilization” (Cell reports, 2018)
# B1: MBP-mSHARPIN UBL_(163–301) [mouse] / mHOIL-1L_(1–189)-strep [mouse] (parent complex)
# chain 1: SSGNFKKEELATRLSQAIAGGDEKAAAQVAAVLAQHHVALNVQLMEAWFPPGPIRLQVTVEDATSVLSSSSSAHVSLKIHPHCSIAALQDQVFSEFGFPPAVQRWVIGRCLCMPERSLASYGVSQDGDPAFLYLLSAPR
# chain 2: MDEKTKKAEEMALSLARAVAGGDEQAAIKYATWLAEQRVPLRVQVKPEVSPTQDIRLCVSVEDAYMHTVTIWLTVRPDMTVASLKDMVFLDYGFPPSLQQWVVGQRLARDQETLHSHGIRRNGDGAYLYLLSARNTSLNPQELQRQRQLRMLEDLGFKDLTLQSRGPLEPVLPKPRTNQEPGQPDAAPE
# B2: mHOIL-1L_(1–140) [mouse] / GST-mHOIP_(466–630) [mouse] (parent complex)
# chain 1: MDEKTKKAEEMALSLARAVAGGDEQAAIKYATWLAEQRVPLRVQVKPEVSPTQDIRLCVSVEDAYMHTVTIWLTVRPDMTVASLKDMVFLDYGFPPSLQQWVVGQRLARDQETLHSHGIRRNGDGAYLYLLSARNTSLNP
# chain 2: SCGDPEKQRQDKMRKEGLQLVSMIQEGETAGASPEEVFSALQYSGTEVPLQWLRSELSYVLEMVAELAGQQDPELGAFSCQEARKAWLDRHGNLDEAVEECVRARRRKVHELQSLGFGPKEGSLQALFQHGGDVARALTELQRQRLEPFHQRLWDRDPEPTPCWD
# B3: mHOIL-1L_(1–140) and mSHARPIN_(163–301) applied together [mouse] / GST-mHOIP_(466–630) [mouse] (parent complex)
# chain 1: B2 chain 1
# chain 2: B1 chain 1
# chain 3: B2 chain 2
# B4: mSHARPIN_(163–301) [mouse] / GST-mHOIP_(466–630) [mouse] (parent complex)
# chain 1: B1 chain 1
# chain 2: B2 chain 2
# Variants of: B1
# Assay: SPR; analyte 40 mM as printed in the legend; response read at end of injection (about 175 s); mHOIL-1L1-189-strep immobilized with anti-strep antibody; parent: 45; read off a plot
row,response,Variant
1,~3 RU,chain 1 SSGNFKKEELATRASQAAAGGDEKAAAQVAAVLAQHHVALNVQLMEAWFPPGPIRLQVTVEDATSVLSSSSSAHVSLKIHPHCSIAALQDQVFSEFGFPPAVQRWVIGRCLCMPERSLASYGVSQDGDPAFLYLLSAPR

# Variants of: B2
# Assay: SPR; response read at end of injection (about 180 s); GST-mHOIP D-UBA UBA2mut immobilized with anti-GST antibody; read off a plot
row,response,Variant
1,~-3 RU,chain 2 SCGDPEKQRQDKMRKEGLQLVSMIQEGETAGASPEEVFSALQYSGTEVPLQWLRSELSYVLEMVAELAGQQDPELGAFSCQEARKAWLDRHGNLDEAVEECVRARRRKVHELQSLGFGPKEGSLQALFQHGGDVARALTELARQRAEPAHQRLWDRDPEPTPCWD

# Variants of: B2
# Assay: SPR; response read at end of injection (about 180 s); GST-mHOIP D-UBA UBA1mut immobilized with anti-GST antibody; read off a plot
row,response,Variant
1,~60 RU,chain 2 SCGDPEKQAQDKMRKEGAQLASMIQEGETAGASPEEVFSALQYSGTEVPLQWLRSELSYVLEMVAELAGQQDPELGAFSCQEARKAWLDRHGNLDEAVEECVRARRRKVHELQSLGFGPKEGSLQALFQHGGDVARALTELQRQRLEPFHQRLWDRDPEPTPCWD

# Variants of: B3
# Assay: as above
row,response,Variant
1,~170 RU,chain 3 SCGDPEKQAQDKMRKEGAQLASMIQEGETAGASPEEVFSALQYSGTEVPLQWLRSELSYVLEMVAELAGQQDPELGAFSCQEARKAWLDRHGNLDEAVEECVRARRRKVHELQSLGFGPKEGSLQALFQHGGDVARALTELQRQRLEPFHQRLWDRDPEPTPCWD

# Variants of: B3
# Assay: SPR; response read at end of injection (about 180 s); GST-mHOIP D-UBA UBA2mut immobilized with anti-GST antibody; read off a plot
row,response,Variant
1,~120 RU,chain 3 SCGDPEKQRQDKMRKEGLQLVSMIQEGETAGASPEEVFSALQYSGTEVPLQWLRSELSYVLEMVAELAGQQDPELGAFSCQEARKAWLDRHGNLDEAVEECVRARRRKVHELQSLGFGPKEGSLQALFQHGGDVARALTELARQRAEPAHQRLWDRDPEPTPCWD

# Variants of: B4
# Assay: as above
row,response,Variant
1,~5 RU,chain 2 SCGDPEKQRQDKMRKEGLQLVSMIQEGETAGASPEEVFSALQYSGTEVPLQWLRSELSYVLEMVAELAGQQDPELGAFSCQEARKAWLDRHGNLDEAVEECVRARRRKVHELQSLGFGPKEGSLQALFQHGGDVARALTELARQRAEPAHQRLWDRDPEPTPCWD

# Variants of: B4
# Assay: SPR; response read at end of injection (about 180 s); GST-mHOIP D-UBA UBA1mut immobilized with anti-GST antibody; read off a plot
row,response,Variant
1,~0 RU,chain 2 SCGDPEKQAQDKMRKEGAQLASMIQEGETAGASPEEVFSALQYSGTEVPLQWLRSELSYVLEMVAELAGQQDPELGAFSCQEARKAWLDRHGNLDEAVEECVRARRRKVHELQSLGFGPKEGSLQALFQHGGDVARALTELQRQRLEPFHQRLWDRDPEPTPCWD
